According to article PMC12319226 (Frontiers in Bioinformatics, 2025):

T1: fHbp m001720 (Neisseria meningitidis, engineered fHbp …, point mutant)
T1 chain: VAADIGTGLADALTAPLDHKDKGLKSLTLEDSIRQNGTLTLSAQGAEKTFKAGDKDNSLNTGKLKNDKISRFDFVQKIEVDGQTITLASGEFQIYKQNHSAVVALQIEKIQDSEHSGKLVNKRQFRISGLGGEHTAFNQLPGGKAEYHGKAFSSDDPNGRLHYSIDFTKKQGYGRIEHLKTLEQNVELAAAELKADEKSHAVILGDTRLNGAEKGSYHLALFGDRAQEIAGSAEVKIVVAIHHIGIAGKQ

T2: fHbp m001847 (Neisseria meningitidis, engineered fHbp …, chimera)
T2 chain: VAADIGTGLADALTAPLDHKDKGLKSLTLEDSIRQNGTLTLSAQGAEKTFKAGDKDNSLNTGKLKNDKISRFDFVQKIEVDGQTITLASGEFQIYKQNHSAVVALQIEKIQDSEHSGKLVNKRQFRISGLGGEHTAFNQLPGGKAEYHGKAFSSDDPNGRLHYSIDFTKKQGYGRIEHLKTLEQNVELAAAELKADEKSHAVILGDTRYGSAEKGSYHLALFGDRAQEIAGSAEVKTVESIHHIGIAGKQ

T3: fHbp m001040 (Neisseria meningitidis fHbp v3.28-based …, point mutant)
T3 chain: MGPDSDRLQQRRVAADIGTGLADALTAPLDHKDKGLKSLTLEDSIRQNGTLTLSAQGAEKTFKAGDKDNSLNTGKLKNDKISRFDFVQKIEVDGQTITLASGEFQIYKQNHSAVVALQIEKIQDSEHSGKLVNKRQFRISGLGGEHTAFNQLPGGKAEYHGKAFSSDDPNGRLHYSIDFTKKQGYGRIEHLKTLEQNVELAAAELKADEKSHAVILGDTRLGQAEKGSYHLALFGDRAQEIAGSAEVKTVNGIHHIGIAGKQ

T4: fHbp m001119 (Neisseria meningitidis fHbp v3.28-based …, point mutant)
T4 chain: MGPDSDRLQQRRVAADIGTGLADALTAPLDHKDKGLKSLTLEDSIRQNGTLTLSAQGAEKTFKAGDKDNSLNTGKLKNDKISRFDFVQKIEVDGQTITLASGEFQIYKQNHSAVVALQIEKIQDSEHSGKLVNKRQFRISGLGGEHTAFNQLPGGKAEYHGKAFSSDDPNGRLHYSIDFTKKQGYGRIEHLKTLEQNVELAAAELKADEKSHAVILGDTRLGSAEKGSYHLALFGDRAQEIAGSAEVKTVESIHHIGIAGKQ

T5: fHbp m001177 (Neisseria meningitidis fHbp v3.28-based …, point mutant)
T5 chain: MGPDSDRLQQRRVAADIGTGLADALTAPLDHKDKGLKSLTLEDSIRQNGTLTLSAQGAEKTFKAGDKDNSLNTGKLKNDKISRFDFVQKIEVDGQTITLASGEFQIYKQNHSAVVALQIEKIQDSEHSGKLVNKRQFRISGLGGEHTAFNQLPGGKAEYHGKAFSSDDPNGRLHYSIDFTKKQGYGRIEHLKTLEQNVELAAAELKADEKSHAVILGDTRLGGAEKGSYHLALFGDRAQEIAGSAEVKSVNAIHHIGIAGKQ

T6: fHbp m001200 (Neisseria meningitidis fHbp v3.28-based …, point mutant)
T6 chain: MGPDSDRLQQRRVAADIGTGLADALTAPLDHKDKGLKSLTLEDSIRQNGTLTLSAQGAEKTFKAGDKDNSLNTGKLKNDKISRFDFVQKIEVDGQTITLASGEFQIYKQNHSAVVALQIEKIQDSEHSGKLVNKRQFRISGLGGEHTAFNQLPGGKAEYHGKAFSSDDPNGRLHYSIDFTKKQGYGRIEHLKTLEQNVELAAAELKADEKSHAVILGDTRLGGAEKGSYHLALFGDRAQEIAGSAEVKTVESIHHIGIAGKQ

T7: fHbp m001211 (Neisseria meningitidis fHbp v3.28-based …, point mutant)
T7 chain: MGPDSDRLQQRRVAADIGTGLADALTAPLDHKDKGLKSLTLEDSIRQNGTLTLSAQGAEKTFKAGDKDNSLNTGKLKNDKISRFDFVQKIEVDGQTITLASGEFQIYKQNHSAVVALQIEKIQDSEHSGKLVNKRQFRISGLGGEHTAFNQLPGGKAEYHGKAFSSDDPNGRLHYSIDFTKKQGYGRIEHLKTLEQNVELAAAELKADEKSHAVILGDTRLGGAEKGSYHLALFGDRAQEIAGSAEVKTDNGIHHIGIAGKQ

T8: fHbp m001524 (Neisseria meningitidis, fHbp …, point mutant)
T8 chain: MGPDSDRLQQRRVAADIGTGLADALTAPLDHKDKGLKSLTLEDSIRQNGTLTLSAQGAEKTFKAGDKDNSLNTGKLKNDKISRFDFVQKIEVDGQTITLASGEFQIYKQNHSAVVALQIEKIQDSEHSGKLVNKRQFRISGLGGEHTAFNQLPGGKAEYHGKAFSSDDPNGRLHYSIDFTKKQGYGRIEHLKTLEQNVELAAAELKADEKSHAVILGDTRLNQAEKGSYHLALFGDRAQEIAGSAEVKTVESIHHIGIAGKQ

T9: fHbp m001607 (Neisseria meningitidis, fHbp …, point mutant)
T9 chain: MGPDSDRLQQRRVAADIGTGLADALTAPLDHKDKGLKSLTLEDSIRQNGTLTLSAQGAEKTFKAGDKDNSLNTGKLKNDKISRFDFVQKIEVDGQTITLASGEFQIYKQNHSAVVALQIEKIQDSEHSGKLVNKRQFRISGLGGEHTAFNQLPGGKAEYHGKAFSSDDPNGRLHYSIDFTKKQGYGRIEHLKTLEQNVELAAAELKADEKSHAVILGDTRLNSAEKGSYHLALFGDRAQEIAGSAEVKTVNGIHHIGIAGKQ


Assays:
Assay in all cases: BLI
Settings in all cases: both partners purified
[1] = biological target: T1, fHbp m001720
[2] = biological target: T2, fHbp m001847
[3] = biological target: T3, fHbp m001040
[4] = biological target: T4, fHbp m001119
[5] = biological target: T5, fHbp m001177
[6] = biological target: T6, fHbp m001200
[7] = biological target: T7, fHbp m001211
[8] = biological target: T8, fHbp m001524
[9] = biological target: T9, fHbp m001607

Row | Binder | Kd [1] [nM] | koff [1] [s⁻¹] | kon [1] [M⁻¹ s⁻¹] | Kd [2] [nM] | koff [2] [s⁻¹] | kon [2] [M⁻¹ s⁻¹] | Kd [3] [nM] | koff [3] [s⁻¹] | kon [3] [M⁻¹ s⁻¹] | Kd [4] [nM] | koff [4] [s⁻¹] | kon [4] [M⁻¹ s⁻¹] | Kd [5] [nM] | koff [5] [s⁻¹] | kon [5] [M⁻¹ s⁻¹] | Kd [6] [nM] | koff [6] [s⁻¹] | kon [6] [M⁻¹ s⁻¹] | Kd [7] [nM] | koff [7] [s⁻¹] | other results
1 | mAb 1E6 (human) (antibody, V domains shown, source: Expi293, purified (MabSelect SuRe, SEC); copies: 2 + 2) VH: EVQLVQSGAEVKKPGSSVKVSCKASGGTVIDYPITWVRQAPGQGLEWVGGFVPLFRTSNYGQKFQGRVTITADKSTSTASMELNSLTSEDTAIYYCARGDTAMGPFDYWGQGTLVTVSS VL: SYVLTQPPSLSVAPGKTATLTCGGNNIAGKTVHWYQQRPGQAPVLVISYDSDRPSGIPERFSGSNSANTATLTISRVEAGDEADYYCQVWDRNSDHWVFGGGTKLTVL | 0.788 | 0.000292 | 370200 ± 1240 | 0.348 | 0.000123 | 353300 ± 2150 | 0.594 | 0.000266 | 447100 ± 3340 | 0.886 | 0.000349 | 393800 ± 1250 | 0.609 | 0.000279 | 457500 ± 1660 | 0.219 | 0.000303 | 1.385e+06 ± 5610 | 0.507 | 0.000219 | kon [7]: 431400 ± 2210 M⁻¹ s⁻¹; Kd [8]: 0.742 nM; koff [8]: 0.000167 s⁻¹; kon [8]: 224700 ± 1680 M⁻¹ s⁻¹; Kd [9]: 0.242 nM; koff [9]: 0.000117 s⁻¹; kon [9]: 484000 ± 5230 M⁻¹ s⁻¹
2 | chimeric antibody h12C1 (antibody, V domains shown, also called humanized 12C1; source: Expi293, purified (MabSelect SuRe, SEC); copies: 2 + 2) VH: QVQLQESGPELVKPGASVKISCKASGYSFSDYNMSWVKQSNGKSLEWIGIIDPKYGTINYNQKFKGKATLTVDQASSTAYMQLNSLTSEDSAVYYCVRDYYGSSYFDYWGQGTTLTVSS VL: DIVLTQSPSSIYASLGERVTLTCKASQDIHNYLNWFQQKPGKSPKTLIYRANRLVDGVPSRFSGGGSGQDYSLTISSLEFEDIGIYYCLQYDEFPPTFGGGTRLEIK | 1.04 | 0.000368 | 354900 ± 1290 | 108 | 0.00885 ± 0.000103 | 81800 ± 5640 | 0.523 | 0.000192 | 368300 ± 1820 | 0.957 | 0.000266 | 278300 ± 1110 | 92.7 | 0.02257 ± 0.000177 | 244000 ± 9380 | 0.243 | 0.000202 | 830700 ± 4100 | 19.8 | 0.00753 | kon [7]: 381300 ± 3730 M⁻¹ s⁻¹; Kd [8]: 0.701 nM; koff [8]: 0.000117 s⁻¹; kon [8]: 167000 ± 1950 M⁻¹ s⁻¹; Kd [9]: 32.9 nM; koff [9]: 0.012 s⁻¹; kon [9]: 366000 ± 13300 M⁻¹ s⁻¹
